# Measured values from PMC11979922.
# Biological target: HOL-30, β-galactoside-binding tandem-repeat galectin from the marine sponge Halichondria okadai (Halichondria okadai)
# Assay: SEC
substance,measurement,value
"HOL-30, β-galactoside-binding tandem-repeat galectin from the marine sponge Halichondria okadai (natural protein)",stoichiometry N,2
